In publication PMC2896269 (The Journal of neuroscience : the official journal of the …, 2010) one finds Kd data, which are given here for one molecule.

The assay has as its target HA-neuroligin-1(+B) (UniProt Q62765 46-843). Briefly: immunostaining of cells or tissue.

HA-neuroligin-1(+B), sequence (Q62765 46-843): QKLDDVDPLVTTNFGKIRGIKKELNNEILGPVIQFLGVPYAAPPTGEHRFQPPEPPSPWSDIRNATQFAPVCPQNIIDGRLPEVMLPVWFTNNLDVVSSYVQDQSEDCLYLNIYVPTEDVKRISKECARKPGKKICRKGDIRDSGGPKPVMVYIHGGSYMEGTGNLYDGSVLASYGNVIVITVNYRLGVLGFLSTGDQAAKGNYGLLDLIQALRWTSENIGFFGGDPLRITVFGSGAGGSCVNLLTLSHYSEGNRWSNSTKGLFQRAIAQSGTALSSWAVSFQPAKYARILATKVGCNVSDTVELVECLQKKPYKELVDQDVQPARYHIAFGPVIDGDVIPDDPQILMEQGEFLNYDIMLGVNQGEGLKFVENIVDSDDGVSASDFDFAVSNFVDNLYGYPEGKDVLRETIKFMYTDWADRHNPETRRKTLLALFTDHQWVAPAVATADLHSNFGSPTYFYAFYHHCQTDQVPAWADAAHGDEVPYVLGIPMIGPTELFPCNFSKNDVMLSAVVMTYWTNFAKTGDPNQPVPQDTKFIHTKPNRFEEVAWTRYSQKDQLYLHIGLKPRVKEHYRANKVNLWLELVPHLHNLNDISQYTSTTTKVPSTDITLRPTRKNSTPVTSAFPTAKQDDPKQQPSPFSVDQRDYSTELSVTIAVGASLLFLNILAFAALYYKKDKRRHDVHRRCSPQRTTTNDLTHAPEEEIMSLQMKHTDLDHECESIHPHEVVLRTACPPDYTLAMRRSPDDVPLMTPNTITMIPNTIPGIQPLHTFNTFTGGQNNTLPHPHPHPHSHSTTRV

B1: Nrx1β(+S4)-Fc (Fc fusion)
chain: not shown
Turning to B1, binding was characterised by a dissociation constant (Kd) of 26.9 nM.

One may read the Kd as the equilibrium constant for the complex coming apart. Read a high Kd as a looser complex.
